Values joined by “and” are separate entries in the source; they are usually repeats but may differ in a detail not shown here. Equal entries are not always repeated.
Experiments:
[1] = tested on: encephalo-myocarditis virus infected A549 cells; assay: In vitro RESPIMAT nebulization, trap recovery of interferon omega by biological assay (inhibiting destruction of virus-infected cells); assay type: cell-based; conditions: same solutions
Text: (§1) The effectiveness of a nebulizer can be tested using an in vitro system in which a protein solution is nebulized and the spray mist is caught in a so-called “trap” (see FIG. 1). The activity of the protein in the aerosol reservoir (a) is compared with its activity in the trapped liquid (b), e.g., by means of an immunoassay or using an assay for the biological effectiveness of the protein. This experiment makes it possible to evaluate the degree of destruction of the protein by the nebulizing process. A second parameter of the aerosol quality is the so-called inhalable proportion, which is defined here as the proportion of the mist droplets with a […] median aerodynamic diameter (MMAD) of less than 5.8 μm. The inhalable proportion can be measured using an “Andersen Impactor”. For good protein absorption it is important not only to achieve nebulization without any substantial loss of activity but also to generate an aerosol with a good inhalable proportion (about 60%). […] The effectiveness of a nebulization device can also be tested in an in vivo system; in this case factors such as susceptibility to lung proteases come into play. […] Blood samples arc taken at suitable time intervals and the protein level in the plasma is then measured by immunological or biological methods.
(§2) The device was activated and a volume of about 12.9 μL, (one puff) was nebulized in an air current of 28 l/min. […] Interferon omega was measured in the reservoir solution and in the solution caught in the trap by immunological methods, using an ELISA, and biologically, by inhibiting the destruction of encephalo-myocarditis virus infected A549 cells. […] However, additional biological measurements are very important as they are a particularly sensitive and therapeutically relevant method of quantifying protein destruction.
(§3) In three experiments, 84%, 77%, and 98%, of the immunologically identifiable interferon, based on the starting solution, were found in the trap solution (b). […] The proportion of particles less than 5.8 μm in size (“inhalable proportion”) was measured. […]

neopterin = assay: In vivo test in dog: serum neopterin after interferon omega by RESPIMAT inhalation vs intravenous
Procedure: Interferon omega was administered by inhalation and intravenous route in separate experiments on the same dog. The blood levels of interferon were measured immunologically and biologically at different times. In addition, the neopterin level in the blood was measured. Neopterin is a marker for immune activation; it is released by macrophages after interferon stimulation [see Fuchs et al., “Neopterin, Biochemistry and Clinical Use as a Marker For Cellular Immune Reactions”, Int. Arch. Allergy Appl. Immunol. 101: 1-6 (1993)]. Measurement of the neopterin level serves to quantify interferon activity.
The administration of interferon to the dog was carried out under pentobarbital anesthetic after previous basic sedation. The animal was intubated and subjected to artificial ventilation (volume-controlled respiration: volume per minute 4 L/min, rate 10 breaths/min). A total of 20 puffs were delivered by the RESPIMAT® device. Each puff was given at the start of an inward breath. After the breathing in phase there were five seconds gap before breathing out. […] Interferon omega was measured in heparin plasma by immunological methods using an ELISA and by biological methods by the inhibition of the destruction of encephalo-myocarditis virus infected A549 cells. Serum neopterin was determined by immunology. […]

[2] = In vitro RESPIMAT nebulization, trap recovery of interferon omega by ELISA
Text: as §1, §2, §3

[3] = Inhalable proportion of RESPIMAT spray mist in Andersen impactor; assay type: physicochemical; conditions: immunological measurements
Text: as §1, §3
In this experiment, the reservoir (a) of the RESPIMAT® device was filled with 3.3 mg/mL of manganese superoxide dismutase (MnSOD) in phosphate-buffered saline (PBS). […] The precise amount nebulized was determined gravimetrically (measurements in three succeeding tests: 12.8, 13.7, and 14.3 mg). […] MnSOD was determined in the reservoir solution and in the solution caught in the trap, immunologically using an ELISA and enzymatically by the reduction in the quantity of superoxide after a xanthine/xanthine oxidase reaction. […]

blood glucose level = assay: In vivo test in dog: blood glucose after inhaled highly concentrated insulin solution from RESPIMAT; conditions: anesthetized dog; six puffs of highly concentrated insulin solution from RESPIMAT; FIG. 5
Procedure: The insulin was administered to the dog anesthetized with pentobarbital after previously receiving basic sedation. The animal was intubated and ventilated as before. A total of six puffs of insulin solution were delivered from the RESPIMAT® device. Each puff was administered at the start of an inward breath. Between the breathing in phase and the breathing out phase there was a gap of 5 seconds. Before the next administration of insulin, two breath cycles were left with no intervention. Blood was taken one hour before administration, at the same time as administration and at various times thereafter over […]. The blood glucose level was measured in the fresh blood using the method of Trasch, Koller, and Tritscher (Klein. Chem. 30; 969 [1984]) using a REFLETRON® device made by Boehringer Mannheim.

[4] = Viscosity of aerosol preparation (Ostwald viscosimeter); assay type: physicochemical; conditions: aerosol preparation with about 35 mg/mL of insulin, pH 7.4
Procedure: Higher viscosity solutions of macromolecules with a viscosity of up to 1100×10^−6 Pa·s are preferred. With such solutions, an inhalable proportion of droplets containing an active substance of about 60% is obtained. The limiting viscosity numbers given were detected using an Ostwald viscosimeter using the method known from the literature. For comparison, the viscosity of water is 894×10^−6 Pa·s (measured at 25° C.).
The aerosol preparation thus produced has a concentration of about 35 mg/mL of insulin, the viscosity of the solution being about 1020×10^−6 Pa·s.

[5] = In vitro RESPIMAT nebulization, MnSOD enzymatic activity (reduction of superoxide after xanthine/xanthine oxidase reaction); assay type: biochemical; conditions: 3.3 mg/mL MnSOD in PBS
Procedure: In this experiment, the reservoir (a) of the RESPIMAT® device was filled with 3.3 mg/mL of manganese superoxide dismutase (MnSOD) in phosphate-buffered saline (PBS). The device was operated and a volume of about 13 μL (one puff) was nebulized in an air current of 28 L/min. The precise amount nebulized was determined gravimetrically (measurements in three succeeding tests: 12.8, 13.7, and 14.3 mg). The nebulized solution was caught in a trap (b). This trap contained 20 mL of PBS. In addition, 2 mL of 5% bovine serum albumin was added to stabilize proteins in the trap. MnSOD was determined in the reservoir solution and in the solution caught in the trap, immunologically using an ELISA and enzymatically by the reduction in the quantity of superoxide after a xanthine/xanthine oxidase reaction. In three tests, 78%, 89%, and 83% of the immunologically identifiable MnSOD of the nebulized solution were measured in the trapped solution (b). […] The inhalable proportion (immunological measurements) was 61%.

[6] = In vitro RESPIMAT nebulization, trap recovery of MnSOD by ELISA; conditions: 3.3 mg/mL MnSOD in PBS, one puff, 28 L/min, three tests
Text: The effectiveness of a nebulizer can be tested using an in vitro system in which a protein solution is nebulized and the spray mist is caught in a so-called “trap” (see FIG. 1). The activity of the protein in the aerosol reservoir (a) is compared with its activity in the trapped liquid (b), e.g., by means of an immunoassay or using an assay for the biological effectiveness of the protein. This experiment makes it possible to evaluate the degree of destruction of the protein by the nebulizing process. A second parameter of the aerosol quality is the so-called inhalable proportion, which is defined here as the proportion of the mist droplets with a […] median aerodynamic diameter (MMAD) of less than 5.8 μm. The inhalable proportion can be measured using an “Andersen Impactor”. […] Blood samples arc taken at suitable time intervals and the protein level in the plasma is then measured by immunological or biological methods.
In this experiment, the reservoir (a) of the RESPIMAT® device was filled with 3.3 mg/mL of manganese superoxide dismutase (MnSOD) in phosphate-buffered saline (PBS). […] The precise amount nebulized was determined gravimetrically (measurements in three succeeding tests: 12.8, 13.7, and 14.3 mg). […] In three tests, 78%, 89%, and 83% of the immunologically identifiable MnSOD of the nebulized solution were measured in the trapped solution (b). […]

[7] = concentrated interferon omega solution 53 mg/mL, four tests

Molecule: interferon omega
- biologically active interferon in the trapped solution ([1]; 5 mg/mL formulation with additional human serum albumin (0.5%)): 60% and 54% and 66%
- recovery of the biologically identifiable interferon in the trapped solution ([1]; 5 mg/mL interferon omega in 50 mM trisodium citrate, 150 mM NaCl, pH 5.5, three experiments): 54% and 47% and 81%
- recovery of the biologically identifiable interferon in the trapped solution [1, 7]: 95% and 98% and 61% and 83%
- neopterin levels after inhalation compared with intravenous administration of 0.32 mg of interferon (neopterin; 20 puffs RESPIMAT, 5 mg/mL (about 1.28 mg) vs 0.32 mg i.v., FIG. 3): significantly higher and longer lasting levels
- serum neopterin level after administration by inhalation (neopterin; 20 puffs from RESPIMAT, 5 mg/mL solution (about 1.28 mg)): very high serum neopterin level
- immunologically identifiable interferon found in the trap solution, based on the starting solution ([2]; 5 mg/mL formulation with additional human serum albumin (0.5%), three tests): 79% and 83%
- immunologically identifiable interferon found in the trap solution, based on the starting solution ([2]; 5 mg/mL interferon omega in 50 mM trisodium citrate, 150 mM NaCl, pH 5.5, one puff, air current 28 l/min, ELISA, three experiments): 84% and 77% and 98%
- immunologically identifiable interferon found in the trapped solution, based on the starting solution [2, 7]: 100% and 60% and 68% and 72%
- inhalable proportion (particles less than 5.8 μm) ([3]; 5 mg/mL interferon omega solution, Andersen impactor, 28 l/min): 70%
- inhalable proportion ([3]; interferon omega formulation with additional human serum albumin (0.5%)): 67%

Molecule: insulin
- blood glucose level after administration of insulin by inhalation (blood glucose level): lowering of blood glucose level
- viscosity of the solution [4]: about 1020 ×10^−6 Pa·s

B1: manganese superoxide dismutase (protein, UniProt P04179 25-222, looked up)
Superoxide dismutase [Mn], …: KHSLPDLPYDYGALEPHINAQIMQLHHSKHHAAYVNNLNVTEEKYQEALAKGDVTAQIALQPALKFNGGGHINHSIFWTNLSPNGGGEPKGELLEAIKRDFGSFDKFKEKLTAASVGVQGSGWGWLGFNKERGHLQIAACPNQDPLQGTTGLIPLLGIDVWEHAYYLQYKNVRPDYLKAIWNVINWENVTERYMACKK
notes: 3.3 mg/mL of manganese superoxide dismutase (MnSOD) in phosphate-buffered saline
- loss in enzymatic activity after nebulization [5]: no measurable loss
- immunologically identifiable MnSOD of the nebulized solution measured in the trapped solution [6]: 78% and 89% and 83%
- inhalable proportion ([3]; 3.3 mg/mL MnSOD in PBS): 61%
